In patent US20140154255A1 (AbbVie / Abbott, published 2014):
Numbering of substitutions follows the chain as printed. Numbers in names are those of the source.

Legend:
[1] = biological target: Alexa647-conjugated rHuVEGF (Invitrogen Cat #PHG0143) (human, UniProt P15692-4 27-191, limits assumed, Alexa647-conjugated); test: flow cytometry, surface-bound antibody on 293c18 cells, 3 nM Alexa647-rHuVEGF; design: reference not given here
Description: Data were gathered by way of flow cytometry using a DakoCytomation CyAn ADP flow cytometer and was analyzed using Treestar's FloJo analysis program.

[2] = biological target: T1, human VEGF-A residues 27-191 of Accession #AAV38412 (human, UniProt P15692 27-191); test: BIAcore SPR, KD WT/KD mutant
T1 construct: range 27-191
T1 sequence (P15692 other isoform, or with tags, fused parts or gaps limits assumed): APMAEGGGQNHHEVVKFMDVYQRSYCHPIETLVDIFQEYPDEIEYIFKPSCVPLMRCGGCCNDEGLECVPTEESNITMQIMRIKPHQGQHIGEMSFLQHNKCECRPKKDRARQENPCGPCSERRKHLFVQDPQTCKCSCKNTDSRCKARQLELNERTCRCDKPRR
Description: (§1) The binding kinetics and affinity of the antibodies for VEGF (human VEGF-A residues 27-191 of Accession #AAV38412) was determined by using a BIAcore T200 surface plasmon resonance system (BIAcore, GE Healthcare, Piscataway, N.J.). Coupling running buffer was HBS-EP+ running buffer (10 mM HEPES, 150 mM sodium chloride, 3 mM EDTA 0.05% P-20, pH 7.4); assay running buffer was HBS-EP+ with 300 mM sodium chloride and 0.1 mg/mL BSA (Sigma A7906). Polyclonal goat anti-human Fc (Thermo Scientific prod#31125) was first immobilized to the biosensor surface in 10 mM sodium acetate, pH 4.5 using standard BIAcore amine coupling reagents (N-ethyl-N′-dimethylamino-propylcarbodiimide, EDC; N-hydroxysuccinimide, NHS; and ethanolamine HCl, pH 8.5). For binding kinetics assay a series of cycles were performed, each cycle consisted of 1) mAb capture, 2) Ag or buffer injection, 3) dissociation phase and 4) regeneration. Briefly, anti-VEGF antibodies were captured on parallel surfaces at a low flow rate of 10 μL/min. Capture levels were kept low to minimize avidity due to the dimeric nature of VEGF. No capture of the antibody was made on the reference surface to serve for primary referencing and as a negative control. Subsequently, VEGF or buffer only was injected to all flow cells at a flow rate of 80 μL/min for three minutes to monitor association followed by a 20-minute flow of assay rinning buffer at a flow rate of 80 μL/min to monitor dissociation. […] At the end of each cycle the surface was regenerated with 10 mM glycine, pH 1.5 at a flow rate of 60 μL/min in pulses of 60 and 10 sec. Binding data were fit to the 1:1 Langmuir model with mass transport term included using Biacore T200 Evaluation Software to determine the binding constants.

[3] = biological target: T2, unlabeled human VEGF (ELISA coat) (human, UniProt P15692-4 27-191, limits assumed); test: ELISA overnight, EC50 WT/EC50 mutant
T2 sequence (P15692 other isoform, or with tags, fused parts or gaps limits assumed): as above
Description: (§2) To detect identified variants binding to antigen, ELISA plates (Nunc-Immuno MaxiSorp plates, Nalge Nunc, Rochester, N.Y.) were coated overnight at 4° C. with unlabeled human VEGF at 1 μg/mL in 0.2 M sodium carbonate-bicarbonate buffer (pH 9.4, Pierce, Rockford, Ill.). The plates were then blocked with SuperBlock Blocking Buffer (Pierce, Rockford, Ill.) for 30 min and washed with Washing Buffer (PBS containing 0.1% Tween 20). All the washing steps were performed for three times. […] The plates were washed and 100 μL of goat anti-human kappa HRP-conjugated antibody (Southern Biotech, Birmingham, Ala.) diluted at 1:1000 in ELISA buffer was added to each well. After 30 minutes of incubation, plates were washed and bound antibodies were detected by addition of TMB 1 Component HRP Microwell substrate (BioFx #TMBW-1000-01). The reaction was terminated by addition of 100 μL/well of 650 nM Stop Reagent for TMB Microwell substrate and the absorbance was measured at 650 nm using a VERSAmax microplate reader (Molecular Devices, Sunnyvale, Calif.). Data were fitted using nonlinear regression with the software […]

[4] = biological target: T1, human VEGF-A residues 27-191 of …; test: BIAcore SPR
Description: as §1

[5] = biological target: T1, human VEGF-A residues 27-191 of …; test: BIAcore SPR; kd of this row is at the detection limit
Description: (§3) The binding kinetics and affinity of the antibodies for VEGF (human VEGF-A residues 27-191 of Accession #AAV38412) was determined by using a BIAcore T200 surface plasmon resonance system (BIAcore, GE Healthcare, Piscataway, N.J.). Coupling running buffer was HBS-EP+ running buffer (10 mM HEPES, 150 mM sodium chloride, 3 mM EDTA 0.05% P-20, pH 7.4); assay running buffer was HBS-EP+ with 300 mM sodium chloride and 0.1 mg/mL BSA (Sigma A7906). Polyclonal goat anti-human Fc (Thermo Scientific prod#31125) was first immobilized to the biosensor surface in 10 mM sodium acetate, pH 4.5 using standard BIAcore amine coupling reagents (N-ethyl-N′-dimethylamino-propylcarbodiimide, EDC; N-hydroxysuccinimide, NHS; and ethanolamine HCl, pH 8.5). For binding kinetics assay a series of cycles were performed, each cycle consisted of 1) mAb capture, 2) Ag or buffer injection, 3) dissociation phase and 4) regeneration. Briefly, anti-VEGF antibodies were captured on parallel surfaces at a low flow rate of 10 μL/min. Capture levels were kept low to minimize avidity due to the dimeric nature of VEGF. No capture of the antibody was made on the reference surface to serve for primary referencing and as a negative control. […]

[6] = biological target: T1, human VEGF-A residues 27-191 of …; test: BIAcore SPR; * detection limit
Description: as §3

[7] = biological target: T2, unlabeled human VEGF (ELISA coat); test: ELISA 1 hr, EC50 WT/EC50 mutant
Description: as §2

[8] = biological target: T2, unlabeled human VEGF (ELISA coat); test: ELISA on coated human VEGF, overnight assay, against bevacizumab (WT)
Description: (§4) Corresponding variants in DVD-Ig format were analyzed for binding kinetics by BIAcore only.
as §2

[9] = biological target: T2, unlabeled human VEGF (ELISA coat); test: ELISA on coated human VEGF, 1 hr incubation, against bevacizumab (WT)
Description: as §4, §2

[10] = biological target: T3, VEGF (R&D systems, Minneapolis, Minn.) (UniProt P15692-4 27-191, limits assumed); test: BIAcore SPR
T3 sequence (P15692 other isoform, or with tags, fused parts or gaps limits assumed): as above
Description: (§5) RL was kept low to minimize avidity due to the dimeric nature of VEGF. No capture of the antibody was made on the reference surface to serve as a negative control. Subsequently, VEGF was injected to all flow cells at a flow rate of 50 μL/min for two minutes to monitor association followed by a 25-minute flow of HBS-P running buffer (10 mM HEPES, 150 mM sodium chloride, 0.005% P-20, pH 7.4) to monitor the dissociation phase. At each cycle, VEGF, in 6 different concentrations of VEGF ranging between 0 nM and 512 nM and at four-fold increments, was injected over the surface. […] Binding data were fit to the 1:1 Langmuir model to extract binding constants from the BIAevaluate software. Double referencing was applied in each analysis to eliminate background responses from the reference surface and buffer only control. All the binding kinetics data were analyzed at least three separate determinations.

[11] = biological target: T3, VEGF (R&D systems, Minneapolis, Minn.); test: BIAcore SPR, WT/mutant
Description: as §5

[12] = biological target: T3, VEGF (R&D systems, Minneapolis, Minn.); test: BIAcore SPR, improvement over WT
Description: as §5

[13] = biological target: T3, VEGF (R&D systems, Minneapolis, Minn.); test: BIAcore SPR, mutant/WT
Description: as §5

[14] = biological target: T3, VEGF (R&D systems, Minneapolis, Minn.); test: SPR (BIAcore 2000/3000), antibody captured by anti-human Fc, VEGF as analyte, 1:1 Langmuir fit; variant corresponding to SEQ ID NO:82, the best of the variants
Description: as §5

[15] = biological target: T1, human VEGF-A residues 27-191 of …; test: BIAcore SPR, KD WT/KD mutant [continued]
Description: as §1

[16] = biological target: T1, human VEGF-A residues 27-191 of …; test: BIAcore SPR [continued]
Description: as §1

Sequence of Alexa647-conjugated rHuVEGF (Invitrogen Cat #PHG0143) (P15692 other isoform, or with tags, fused parts or gaps limits assumed): as above

B1: VL T51A (antibody, V domains shown)
VH: EVQLVESGGGLVQPGGSLRLSCAASGYTFTNYGMNWVRQAPGKGLEWVGWINTYTGEPTYAADFKRRFTFSLDTSKSTAYLQMNSLRAEDTAVYYCAKYPHYYGSSHWYFDVWGQGTLVTVSS
VL: DIQMTQSPSSLSASVGDRVTITCSASQDISNYLNWYQQKPGKAPKVLIYFASSLHSGVPSRFSGSGSGTDFTLTISSLQPEDFATYYCQQYSTVPWTFGQGTKVEIKR
B1 showed an MFI [1] of 296.

B2: VH K64Q (antibody, V domains shown)
VH: B1 VH with K65Q
VL: DIQMTQSPSSLSASVGDRVTITCSASQDISNYLNWYQQKPGKAPKVLIYFTSSLHSGVPSRFSGSGSGTDFTLTISSLQPEDFATYYCQQYSTVPWTFGQGTKVEIK
notes: copies: 2 + 2
In the case of B2, the MFI [1] is reported as 230.

B3: H97 F (anti-VEGF IgG) (antibody, V domains shown)
VH: B1 VH with H101F
VL: B2 VL
notes: copies: 2 + 2
B3 gave an affinity improvement [2] of 2.5 fold, an ELISA o/n binding [3] of 2.3 fold and a kon [4] of 59000 M⁻¹ s⁻¹. The Kd [5] was at most 0.17 nM, the koff [6] was at most 1e-05 s⁻¹ and the “ELISA 1hr binding” value [7] was 2 fold.

B4: VH Y53F.K64Q (antibody, V domains shown)
VH: B1 VH with Y54F, K65Q
VL: B2 VL
notes: copies: 2 + 2
In the case of B4, the MFI [1] is reported as 217.

B5: VH H97E.Y98F (antibody, V domains shown)
VH: B1 VH with H101E, Y102F
VL: B2 VL
notes: copies: 2 + 2
For B5, the MFI [1] was 310.

B6: bevacizumab variant H97Y (IgG format) (antibody, name in Kabat numbering, V domains shown)
VH: B1 VH with H101Y
VL: B1 VL with A51T
notes: IgG format; also called H97Y substitution
B6 was tested, and the “fold over WT (EC50 wild type/EC50 mutant), overnight assay” value [8] was 9.3 fold, the “fold over WT (EC50 wild type/EC50 mutant), 1-hour assay” value [9] was 2.6 fold and the affinity improvement [2] was 1.8 fold. For the same binder, the kon [4] was 41200 M⁻¹ s⁻¹, the Kd [5] was at most 0.243 nM and the koff [6] was at most 1e-05 s⁻¹.

B7: VH K64S (antibody, V domains shown)
VH: B1 VH with K65S
VL: B2 VL
notes: copies: 2 + 2
B7 gave an MFI [1] of 168.

B8: bevacizumab variant corresponding to SEQ ID NO:82 (antibody, V domains shown)
VH: B1 VH with N31F, H101D, Y103D, S105G
VL: B1 VL with A51T
Work on B8 yielded a Kd [10] of 0.0827 nM, a koff [10] of 0.000172 s⁻¹ and a kon [10] of 2.08e+06 M⁻¹ s⁻¹. For the same binder, the Δkoff [11] was 2 fold, the ΔKD [12] was 23.8 fold and the Δkon [13] was 11.6 fold. It also gave a Kd [14] of 0.08 nM.

B9: S100a T (SS DLL4-VEGF DVD-Ig) (bispecific antibody)
VH: EVQLVESGGGLVQPGGSLRLSCAASGFTFSNFPMAWVRQAPGKGLEWVATISSSDGTTYYRDSVKGRFTISRDNAKNSLYLQMNSLRAEDTAVYYCARGYYNSPFAYWGQGTLVTVSSASTKGPEVQLVESGGGLVQPGGSLRLSCAASGYTFTNYGMNWVRQAPGKGLEWVGWINTYTGEPTYAADFKRRFTFSLDTSKSTAYLQMNSLRAEDTAVYYCAKYPHYYGTSHWYFDVWGQGTLVTVSS
VL: DIQMTQSPSSLSASVGDRVTITCRASEDIYSNLAWYQQKPGKAPKLLIYDTNNLADGVPSRFSGSGSGTDFTLTISSLQPEDFATYYCQQYNNYPPTFGQGTKLEIKRTVAAPDIQMTQSPSSLSASVGDRVTITCSASQDISNYLNWYQQKPGKAPKVLIYFTSSLHSGVPSRFSGSGSGTDFTLTISSLQPEDFATYYCQQYSTVPWTFGQGTKVEIK
notes: also called SS DLL4-VEGF DVD-Ig variant S100aT
B9 was tested, and the affinity improvement [15] was 1.2 fold, the Kd [16] was 7.6 nM and the koff [16] was 7.33e-05 s⁻¹. It also gave a kon [16] of 9630 M⁻¹ s⁻¹.

B10: T30 W (SS DLL4-VEGF DVD-Ig) (bispecific antibody)
VH: B9 VH with T154W, T229S
VL: B9 VL
notes: also called SS DLL4-VEGF DVD-Ig variant T30W
Binder B10 has an affinity improvement [15] of 0.8 fold, a Kd [16] of 16 nM and a koff [16] of 0.000143 s⁻¹. The kon [16] was 9120 M⁻¹ s⁻¹.
